Experimental data: US20210163536A1

Tests used:
[1] = biological target: human melanocortin-3 receptor (human) (UniProt P41968); test: competition with [125I]-NDP-alpha-MSH, CHO-K1 cell membranes
[2] = biological target: human melanocortin-5 receptor (human) (UniProt P33032); test: as above
[3] = biological target: human melanocortin-4 receptor (human) (UniProt P32245); test: as above
[4] = biological target: human melanocortin-1 receptor (human) (UniProt Q01726); test: as above
[5] = biological target: human melanocortin-3 receptor (human) (UniProt P41968); test: cell-based or functional assay
[6] = biological target: human melanocortin-5 receptor (human) (UniProt P33032); test: cell-based or functional assay
[7] = biological target: human melanocortin-4 receptor (human) (UniProt P32245); test: cell-based or functional assay
[8] = biological target: human melanocortin-1 receptor (human) (UniProt Q01726); test: cell-based or functional assay

Chain of human melanocortin-1 receptor (human) (Q01726 whole entry): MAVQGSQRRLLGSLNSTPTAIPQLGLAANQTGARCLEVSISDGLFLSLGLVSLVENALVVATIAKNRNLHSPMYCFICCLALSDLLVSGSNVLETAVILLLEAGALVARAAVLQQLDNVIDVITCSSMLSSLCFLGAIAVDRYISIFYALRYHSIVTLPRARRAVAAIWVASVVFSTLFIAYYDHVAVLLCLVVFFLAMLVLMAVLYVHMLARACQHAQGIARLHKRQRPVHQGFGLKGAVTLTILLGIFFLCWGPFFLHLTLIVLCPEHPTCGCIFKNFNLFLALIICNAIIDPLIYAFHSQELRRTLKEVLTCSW
Chain of human melanocortin-4 receptor (human) (P32245 whole entry): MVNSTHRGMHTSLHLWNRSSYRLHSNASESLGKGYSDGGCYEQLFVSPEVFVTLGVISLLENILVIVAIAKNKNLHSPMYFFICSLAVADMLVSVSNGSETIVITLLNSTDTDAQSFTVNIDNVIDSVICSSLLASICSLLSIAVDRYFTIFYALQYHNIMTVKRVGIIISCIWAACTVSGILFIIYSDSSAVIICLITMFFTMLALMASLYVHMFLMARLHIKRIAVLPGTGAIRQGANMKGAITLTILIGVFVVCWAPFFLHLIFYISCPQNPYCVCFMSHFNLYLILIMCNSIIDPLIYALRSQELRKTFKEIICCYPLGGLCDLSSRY
Chain of human melanocortin-3 receptor (human) (P41968 whole entry): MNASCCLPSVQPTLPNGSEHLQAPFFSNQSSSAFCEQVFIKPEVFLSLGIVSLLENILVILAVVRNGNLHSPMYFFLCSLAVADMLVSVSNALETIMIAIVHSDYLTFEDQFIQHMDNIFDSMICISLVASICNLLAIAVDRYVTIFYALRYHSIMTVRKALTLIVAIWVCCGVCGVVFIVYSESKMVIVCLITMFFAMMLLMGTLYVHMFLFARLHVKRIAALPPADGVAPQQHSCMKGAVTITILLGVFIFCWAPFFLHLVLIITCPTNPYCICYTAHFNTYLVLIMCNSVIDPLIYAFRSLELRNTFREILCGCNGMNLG
Chain of human melanocortin-5 receptor (human) (P33032 whole entry): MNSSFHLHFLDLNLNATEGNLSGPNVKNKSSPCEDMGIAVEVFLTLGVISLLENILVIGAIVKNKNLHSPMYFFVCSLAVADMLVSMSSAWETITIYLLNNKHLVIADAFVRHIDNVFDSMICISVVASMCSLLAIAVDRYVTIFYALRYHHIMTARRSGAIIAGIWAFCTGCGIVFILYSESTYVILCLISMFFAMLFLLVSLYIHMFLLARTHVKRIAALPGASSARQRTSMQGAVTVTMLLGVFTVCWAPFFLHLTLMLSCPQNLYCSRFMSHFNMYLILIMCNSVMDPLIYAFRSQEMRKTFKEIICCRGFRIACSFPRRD

Substance	Ki [1] [nM]	Ki [2] [nM]	Ki [3] [nM]	Ki [4] [nM]	EC50, intracellular cyclic AMP (cAMP) levels [5] [nM]	EC50, intracellular cyclic AMP (cAMP) levels [6] [nM]	EC50, intracellular cyclic AMP (cAMP) levels [7] [nM]	EC50, intracellular cyclic AMP (cAMP) levels [8] [nM]
Hydantoin(C(O)-(D-Arg-Gly))-cyclo(Cys-Glu-His-D-Phe-Arg-Trp-Cys)-NH2 (peptide)	124	2260	2.95	9.49				
Hydantoin(C(O)-(D-Arg-Gly))-cyclo(Cys-Glu-His-D-Phe-Arg-Trp-Cys)-NH2 (peptide; unit assumed)					17.1	2710	0.16	18
Hydantoin(C(O)-(Gly-D-Arg))-cyclo(Cys-Glu-His-D-Phe-Arg-Trp-Cys)-NH2 (peptide)	78	4540	1.77	4.3				
Hydantoin(C(O)-(Gly-D-Arg))-cyclo(Cys-Glu-His-D-Phe-Arg-Trp-Cys)-NH2 (peptide; unit assumed)					10.3	7440	0.125	12.9
Hydantoin(C(O)-(Nle-Gly))-cyclo(Cys-D-Ala-His-D-Phe-Arg-Trp-Pen)-NH2 (peptide)		27.1	3.53	12.9				
Hydantoin(C(O)-(Nle-Gly))-cyclo(Cys-D-Ala-His-D-Phe-Arg-Trp-Pen)-NH2 (peptide; unit assumed)					21.5	352	0.584	17
cyclo[Hydantoin(C(O)-(Asp-A3c))-D-2-Nal-Arg-Trp-Lys]-NH2 (peptide)	1920	2880	420	7570				
cyclo[Hydantoin(C(O)-(Asp-A5c))-D-2-Nal-Arg-Trp-Lys]-NH2 (peptide)	2390			9940				
cyclo[Hydantoin(C(O)-(Asp-A6c))-D-2-Nal-Arg-Trp-Lys]-NH2 (peptide)	1480	451	16.5	2170				
cyclo[Hydantoin(C(O)-(Asp-Aic))-D-2-Nal-Arg-Trp-Lys]-NH2 (peptide)	2630	1160	35.8	9030				
cyclo[Hydantoin(C(O)-(Asp-Apc))-D-2-Nal-Arg-Trp-Lys]-NH2 (peptide)	2760		266	1280				
cyclo[Hydantoin(C(O)-(Asp-D-Ala))-His-D-Phe-Arg-Trp-Dap]-NH2 (peptide)	1820		19.9	66.6				
cyclo[Hydantoin(C(O)-(Asp-D-Ala))-His-D-Phe-Arg-Trp-Dap]-NH2 (peptide; unit assumed)					49.3		2.12	
cyclo[Hydantoin(C(O)-(Asp-D-Ala))-His-D-Phe-Arg-Trp-Orn]-NH2 (peptide)	576	6400	7.81	37.7	88.6			
cyclo[Hydantoin(C(O)-(Asp-D-Ala))-His-D-Phe-Arg-Trp-Orn]-NH2 (peptide; unit assumed)						9300	4.5	56.6
cyclo[Hydantoin(C(O)-(Asp-His))-D-2-Nal-Arg-Trp-Lys]-NH2 (peptide)				200				
cyclo[Hydantoin(C(O)-(Glu-D-Ala))-His-D-Phe-Arg-Trp-Dab]-NH2 (peptide)	90.5	877	12.7	28				
cyclo[Hydantoin(C(O)-(Glu-D-Ala))-His-D-Phe-Arg-Trp-Dap]-NH2 (peptide)	863		4.97	16.4				
cyclo[Hydantoin(C(O)-(Glu-D-Ala))-His-D-Phe-Arg-Trp-Dap]-NH2 (peptide; unit assumed)					18.2	> 10000	0.182	56.7
cyclo[Hydantoin(C(O)-(Glu-D-Ala))-His-D-Phe-Arg-Trp-Orn]-NH2 (peptide)	2840		52.4	60.4				
cyclo[Hydantoin(C(O)-(Glu-D-Ala))-His-D-Phe-Arg-Trp-Orn]-NH2 (peptide; unit assumed)					39.2		4.94	
